In test [1] the target is T1, murine CD22 protein (ACROBiosystems, SI2-M52Ha) (murine, UniProt P35329 22-708).
T1 construct: extracellular domain; also called murine CD22-ECD; murine CD22-ECD-His
T1 sequence (looked up): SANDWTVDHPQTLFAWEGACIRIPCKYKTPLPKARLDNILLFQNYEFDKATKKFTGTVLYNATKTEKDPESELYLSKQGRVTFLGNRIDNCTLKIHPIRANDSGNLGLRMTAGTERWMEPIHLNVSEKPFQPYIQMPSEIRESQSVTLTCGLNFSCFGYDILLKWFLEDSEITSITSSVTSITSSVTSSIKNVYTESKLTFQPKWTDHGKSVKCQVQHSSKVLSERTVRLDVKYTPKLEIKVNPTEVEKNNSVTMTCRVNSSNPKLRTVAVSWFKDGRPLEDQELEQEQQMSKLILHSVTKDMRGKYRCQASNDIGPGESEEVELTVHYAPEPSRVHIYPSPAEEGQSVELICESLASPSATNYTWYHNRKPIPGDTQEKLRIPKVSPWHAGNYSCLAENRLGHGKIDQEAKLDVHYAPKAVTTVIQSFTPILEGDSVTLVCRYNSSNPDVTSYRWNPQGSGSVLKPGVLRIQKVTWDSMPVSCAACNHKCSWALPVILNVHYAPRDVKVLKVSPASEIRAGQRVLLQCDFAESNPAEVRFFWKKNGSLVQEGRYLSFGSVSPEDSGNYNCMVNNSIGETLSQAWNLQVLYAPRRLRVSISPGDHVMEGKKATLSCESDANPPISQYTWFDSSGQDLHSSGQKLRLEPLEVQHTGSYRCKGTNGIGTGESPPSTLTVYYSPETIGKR
The test is described as follows: ELISA, coated murine CD22, 0.1 nM Ab. In a few lines: (§1)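 Coat 2 μg/mL CD22 in PBS, overnight 4° C; block PBS/2% BSA 2 h RT. Ab 2 h 37° C; HRP anti-species secondary 2 h 37° C. TMB 30 min RT, stop 1.0 N HCl.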
Background: An ELISA detects its analyte on a solid surface through an enzyme-linked reagent.

For test [2], the target named is T2, human CD22, endogenous on Raji cells (human, UniProt P20273 20-847).
T2 construct: whole, on cells; Endogenous protein of the Raji cell line
T2 sequence (looked up): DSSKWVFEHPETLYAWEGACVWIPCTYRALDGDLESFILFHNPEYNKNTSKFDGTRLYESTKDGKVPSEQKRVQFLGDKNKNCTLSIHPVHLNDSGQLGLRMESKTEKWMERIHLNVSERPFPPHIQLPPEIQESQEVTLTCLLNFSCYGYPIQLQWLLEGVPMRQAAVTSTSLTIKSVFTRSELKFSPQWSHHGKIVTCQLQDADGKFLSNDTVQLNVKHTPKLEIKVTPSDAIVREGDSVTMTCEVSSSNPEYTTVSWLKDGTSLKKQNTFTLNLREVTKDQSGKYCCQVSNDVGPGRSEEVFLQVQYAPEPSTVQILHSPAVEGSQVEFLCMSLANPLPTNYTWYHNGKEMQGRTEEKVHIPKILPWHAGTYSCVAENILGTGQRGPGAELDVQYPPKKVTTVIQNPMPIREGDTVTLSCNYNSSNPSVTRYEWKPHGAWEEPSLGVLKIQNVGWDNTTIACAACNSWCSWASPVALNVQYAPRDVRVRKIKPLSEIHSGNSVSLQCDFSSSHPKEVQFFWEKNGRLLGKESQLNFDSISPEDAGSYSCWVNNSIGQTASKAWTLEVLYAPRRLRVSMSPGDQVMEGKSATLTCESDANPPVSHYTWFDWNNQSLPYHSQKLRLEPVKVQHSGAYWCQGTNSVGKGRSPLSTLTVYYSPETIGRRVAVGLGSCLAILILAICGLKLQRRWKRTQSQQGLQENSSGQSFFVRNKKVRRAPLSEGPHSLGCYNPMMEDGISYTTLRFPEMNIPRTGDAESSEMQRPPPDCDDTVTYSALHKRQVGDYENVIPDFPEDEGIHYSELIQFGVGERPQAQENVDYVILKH
The test is described as follows: FACS, Raji cells. In a few lines: (§2)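 Raji cells and CHO-K1 cells expressing human CD22 were blocked in PBS + 2% BSA at 2×10⁶ cells/ml and incubated with chimeric antibody for 2 h on ice. Bound antibody was detected with an Alexa Fluor 488 secondary for 1 h on ice and read by flow cytometry as MFI. EC50 came from curve fitting.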
A general note: A flow cytometer gives signals particle by particle.

The target of test [3] is T1, murine CD22 protein (ACROBiosystems, …). The test is described as follows: ELISA, coated murine CD22, 0.00001 nM Ab. Summed up:
as §1

In test [4] the target is T2, human CD22, endogenous on Raji cells. As to the kind of experiment: FACS, Raji cells. An excerpt: (§3) The required cells were scale-up cultured in a T-75 cell culture flask to the logarithmic growth phase. For the adherent cell CHO-K1, the medium was aspirated, the cells were washed 2 times with PBS buffer, and then digested with trypsin. After the digestion was terminated, the cells were washed 2 times with PBS buffer. For suspension cell Raji, the medium supernatant was directly centrifuged and discarded, and the cell pellet was washed 2 times with PBS. After counting the cells in the previous step, the cell pellet was resuspended with [PBS+2% (w/w) BSA] blocking solution to 2×10⁶ cells/ml, and added to a 96-well FACS reaction plate at 50 μl/well, and then the chimeric antibody test sample was added at 50 μl/well, and incubated on ice for 2 hours. The mixture was centrifuged and washed 3 times with PBS buffer, Alexa Flour 488-labeled secondary antibody (purchased from Invitrogen, catalog number: A-11013) was added at 50 μl/well, and incubated on ice for 1 hour. The obtained mixture was centrifuged and washed 5 times with PBS, and FACS (FACS Canto™, purchased from BD Company) was used for detection and result analysis. Data analysis was performed by software (CellQuest) to obtain the mean fluorescence density (MFI)of the cells. And then software (GraphPad Prism8) was used for analysis, data fitting, and EC50 value calculation. […] The same method was used to detect the binding of the chimeric antibodies to endogenous CD22-negative cell MoLT4 cells (purchased from ATCC, CRL-1582) and CHO-K1 cells.
The source holds these as a separate data set.

For test [5], the target named is T1, murine CD22 protein (ACROBiosystems, …). The test is described as follows: ELISA, coated murine CD22, 10 nM Ab. Summed up:
as §1

Test [6] has as its target T3, human CD22, full length, on CHO-K1-human CD22 2C4 cells (human, UniProt P20273 20-847).
T3 construct: Full-length human CD22 (NCBI NP_001762.2) stably transfected into CHO-K1
T3 sequence: T2 sequence (looked up)
As to the kind of experiment: FACS, CHO-K1-human CD22 2C4 cells. Summed up: as §2

In test [7] the target is T1, murine CD22 protein (ACROBiosystems, …). As to the kind of experiment: ELISA, coated murine CD22, 0.0001 nM Ab. Summed up: as §1
For test [8] the target is unchanged. The test is described as follows: ELISA, coated murine CD22, 100 nM Ab. Summed up: as §1
The target is the same in test [9]. The test is described as follows: ELISA, coated murine CD22, 0.01 nM Ab. Summed up:
as §1

For test [10] the target is unchanged. As to the kind of experiment: ELISA, coated murine CD22, 0.001 nM Ab. Summed up:
as §1

The target of test [11] is T3, human CD22, full length, on …. The test is described as follows: FACS, CHO-K1-human CD22 2C4 cells.
Excerpt: as §3
The source holds these as a separate data set.

The target in test [12] is T4, human CD22-ECD-His protein (human, UniProt P20273 20-687).
T4 construct: Recombinant, from HEK293E cells; also called hCD22-ECD-His; human CD22-His protein; not shown: His tag
T4 sequence: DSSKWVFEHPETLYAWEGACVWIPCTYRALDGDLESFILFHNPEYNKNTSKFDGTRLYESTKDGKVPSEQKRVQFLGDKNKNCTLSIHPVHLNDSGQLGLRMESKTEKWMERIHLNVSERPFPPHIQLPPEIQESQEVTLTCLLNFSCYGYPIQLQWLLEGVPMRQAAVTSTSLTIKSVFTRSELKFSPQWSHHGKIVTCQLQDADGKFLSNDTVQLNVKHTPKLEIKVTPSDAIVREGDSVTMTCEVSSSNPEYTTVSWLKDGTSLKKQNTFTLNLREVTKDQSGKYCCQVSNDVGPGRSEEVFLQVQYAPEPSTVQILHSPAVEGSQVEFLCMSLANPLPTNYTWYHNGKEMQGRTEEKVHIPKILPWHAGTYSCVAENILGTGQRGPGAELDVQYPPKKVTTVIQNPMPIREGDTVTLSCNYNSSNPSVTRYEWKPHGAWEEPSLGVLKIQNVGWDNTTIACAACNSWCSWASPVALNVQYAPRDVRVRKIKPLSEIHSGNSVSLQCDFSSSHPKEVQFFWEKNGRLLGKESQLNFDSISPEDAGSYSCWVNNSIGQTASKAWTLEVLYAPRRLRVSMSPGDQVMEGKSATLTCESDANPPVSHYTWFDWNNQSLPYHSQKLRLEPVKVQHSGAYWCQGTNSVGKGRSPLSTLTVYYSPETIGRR
The test is described as follows: SPR (Biacore), antibody captured on Protein A chip, CD22-ECD-His in solution. How it is done:
Sample buffer and running buffer were HBS-EP+(10 mM HEPES, 150 mM NaCl, 3 mM EDTA, 0.05% surfactant P20) (GE Healthcare; BR-1006-69). The flow-through cell was set to 25° C. The sample block was set to 16° C. Both were pretreated with the running buffer. In each cycle, the antibody to be tested was first captured with a Protein A chip, then a single concentration of CD22 antigen protein was injected. The binding and dissociation process of the antibody and the antigen protein was recorded, and finally Glycine pH 1.5 (GE Healthcare; BR-1003-54) was used to complete chip regeneration. Binding was measured by injecting different concentrations of recombinant human CD22-ECD His protein in solution for 240 s with a flow rate of 30 μL/min. The concentration started from 200 nM (see the detailed results for the actual concentration in the test) and was diluted at 1:1, making a total of 5 concentrations. The dissociation phase was monitored for up to 600 s and was triggered by switching from sample solution to running buffer. The surface was regenerated by washing with a 10 mM of glycine solution (pH 1.5) for 30 s at a flow rate of 30 μL/min. Bulk refractive index difference was corrected by subtracting the response obtained from the goat anti-human Fc surface. Blank injection was also subtracted (=double reference). For calculation of apparent KD and other kinetic parameters, Langmuir 1:1 model was used.

For a further test, the target named is T5, human CD22 domain5-7-His (human, UniProt P20273 414-687).
T5 construct: also called hCD22 domain5-7-His; not shown: His tag
T5 sequence: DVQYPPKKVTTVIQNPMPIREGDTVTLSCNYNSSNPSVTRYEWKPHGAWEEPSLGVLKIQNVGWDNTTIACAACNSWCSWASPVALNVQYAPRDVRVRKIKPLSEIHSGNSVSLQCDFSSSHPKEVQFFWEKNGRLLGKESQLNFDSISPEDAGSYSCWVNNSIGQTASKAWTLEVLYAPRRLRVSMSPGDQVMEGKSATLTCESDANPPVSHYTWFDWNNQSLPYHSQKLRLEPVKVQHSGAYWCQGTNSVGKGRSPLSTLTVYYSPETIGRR
As to the kind of experiment: ELISA, plate coated with human CD22 domain5-7-His.

Where two headings read alike, the source gives them in different places.

B1: HA22-hIgG1 (antibody, V domains shown)
VH: EVQLVESGGGLVKPGGSLKLSCAASGFAFSIYDMSWVRQTPEKCLEWVAYISSGGGTTYYPDTVKGRFTISRDNAKNTLYLQMSSLKSEDTAMYYCARHSGYGTHWGVLFAYWGQGTLVTVSA
VL: DIQMTQTTSSLSASLGDRVTISCRASQDISNYLNWYQQKPDGTVKLLIYYTSILHSGVPSRFSGSGSGTDYSLTISNLEQEDFATYFCQQGNTLPWTFGCGTKLEIKR
One may read the EC50 as the concentration at which the effect is half-maximal. Take B1: the OD450 in [1] worked out at 0.06 OD450; in [3], 0.06 OD450; in [5], 0.07 OD450; in test [7] it was 0.06 OD450; in test [8], 0.1 OD450; in test [9] it was 0.06 OD450. Moreover, in test [10], the OD450 is 0.05 OD450. Also, the EC50 in test [2] was 0.29 nM; in test [4], 0.71 nM; in [6], 0.81 nM; in test [11], 1.1 nM. Besides, the “Maximum mean fluorescence intensity” value was 25000 MFI in [2], 19700 MFI in test [4], 32700 MFI in test [6] and 43400 MFI in test [11].

B2: F1.245.2 (antibody, human IgG1, kappa, V domains shown)
VH: EVQLQQSGAELVKPGASVKLSCTGSGFNIKDYYIHWVKQRTEQGLEWMGRIDPEDGETEYAPKFQDEATITSDTSSNTAYLQLSSLTYEDTAVYYCAREAAGYFYRGSSYGYFDVWGTGTTVTVSS
VL: DFQMTQTTSFLSASLGDRVTISCSASQDISNYLNWYQQKPDGTVKLLIYYTSSLHSGVPSRFSGSGSGTDYSLTISNLEPEDIATYYCQQYSMLPYTFGGGTKLEMER
notes: Chimeric IgG1 kappa
Usually Kd stands for the concentration at which binding is half-saturated. As usually defined, the koff is a measure of how fast the partners let go of each other. What is called kon is the rate constant with which the complex forms. High values mean faster complex formation, low ones slower complex formation. Regarding B2, in test [12], the Kd was 0.458 nM, the koff turned out to be 0.00119 s⁻¹ and the kon was 2.6e+06 M⁻¹ s⁻¹. For the same molecule, the binding result with human CD22 domain5-7-His is given as “no binding”.

B3: F1.257.3 (antibody, human IgG1, kappa, V domains shown)
VH: QVQLQQSGPELARPGASVKLSCKASGYTFTSYGISWVKQRTGQDLEWIGEIYPKLGTTYYNEKFKDKATLTTDRSSSTAYMALRSLTSEDSAVYFCACPHYYATRGGDYWGQGTTLTVSS
VL: EIVLTQSPATLSVTPGDSVTFSCRASQSISNHLHWYQQKSHESPRLLIRYASQSISGIPSRFSGSGSGTDFTLSLSSVETEDFGVYFCQQSHSWPYTFGGGTKLEIAR
notes: Chimeric IgG1 kappa
In test [12], B3 showed a Kd of 0.417 nM, a koff of 0.000113 s⁻¹ and a kon of 270000 M⁻¹ s⁻¹. Moreover, the binding result with human CD22 domain5-7-His was “no binding”.
